Data from article PMC2997501, “Different Residues on the Surface of the Methanothermobacter thermautotrophicus MCM Helicase Interact with Single- and Double-Stranded DNA” (Archaea, 2010).

B1: Methanothermobacter thermautotrophicus MCM protein, wild-type (enzyme, UniProt O27798 1-666, looked up)
chain: MMKTVDKSKTLTKFEEFFSLQDYKDRVFEAIEKYPNVRSIEVDYLDLEMFDPDLADLLIEKPDDVIRAAQQAIRNIDRLRKNVDLNIRFSGISNVIPLRELRSKFIGKFVAVDGIVRKTDEIRPRIVKAVFECRGCMRHHAVTQSTNMITEPSLCSECGGRSFRLLQDESEFLDTQTLKLQEPLENLSGGEQPRQITVVLEDDLVDTLTPGDIVRVTGTLRTVRDERTKRFKNFIYGNYTEFLEQEFEELQISEEDEEKIKELAGDPNIYEKIIRSTAPSIHGYREVKEAIALQLFGGTGKELDDKTRLRGDIHILIVGDPGIGKSQMLKYVSKLAPRGIYTSGKGTSGVGLTAAAVRDEFGGWSLEAGALVLGDKGNVCVDELDKMREEDRSAIHEALEQQTISIAKAGIMATLNSRCSVLAAANPKFGRFDSYKSIAEQIDLPSTILSRFDLIFVVEDKPDEEKDRELARHILKTHKEDHMPFEIDPELLRKYIAYARKNVRPVLTDEAMQVLEDFYVSMRASAADEDSPVPITARQLEALVRLSEASAKIKLKEHVEAEDARKAIKLSQACLKQVGYDPETGKIDIDKVEGRTPKSERDKFRLLLELIKEYEDDYGGRAPTNILITEMMDRYNVSEEKVEELIRILKDKGAIFEPARGYLKIV
notes: MCM helicase of Methanothermobacter thermautotrophicus, full-length enzyme, cloned in pET-21a (NdeI/XhoI); the text speaks of hexamers, dodecamers and filaments in equilibrium (cited work); also called wild-type enzyme; minichromosome maintenance helicase; source: E. coli DE3 codon plus cells, purified on a Ni-column
B2: Methanothermobacter thermautotrophicus MCM protein, Q176A mutant (enzyme, UniProt O27798 1-666, looked up)
chain: MMKTVDKSKTLTKFEEFFSLQDYKDRVFEAIEKYPNVRSIEVDYLDLEMFDPDLADLLIEKPDDVIRAAQQAIRNIDRLRKNVDLNIRFSGISNVIPLRELRSKFIGKFVAVDGIVRKTDEIRPRIVKAVFECRGCMRHHAVTQSTNMITEPSLCSECGGRSFRLLQDESEFLDTATLKLQEPLENLSGGEQPRQITVVLEDDLVDTLTPGDIVRVTGTLRTVRDERTKRFKNFIYGNYTEFLEQEFEELQISEEDEEKIKELAGDPNIYEKIIRSTAPSIHGYREVKEAIALQLFGGTGKELDDKTRLRGDIHILIVGDPGIGKSQMLKYVSKLAPRGIYTSGKGTSGVGLTAAAVRDEFGGWSLEAGALVLGDKGNVCVDELDKMREEDRSAIHEALEQQTISIAKAGIMATLNSRCSVLAAANPKFGRFDSYKSIAEQIDLPSTILSRFDLIFVVEDKPDEEKDRELARHILKTHKEDHMPFEIDPELLRKYIAYARKNVRPVLTDEAMQVLEDFYVSMRASAADEDSPVPITARQLEALVRLSEASAKIKLKEHVEAEDARKAIKLSQACLKQVGYDPETGKIDIDKVEGRTPKSERDKFRLLLELIKEYEDDYGGRAPTNILITEMMDRYNVSEEKVEELIRILKDKGAIFEPARGYLKIV
notes: MCM helicase of Methanothermobacter thermautotrophicus, derivative of the full-length enzyme; source: E. coli DE3 codon plus cells, purified on a Ni-column
B3: Methanothermobacter thermautotrophicus MCM protein, P210G mutant (enzyme, UniProt O27798 1-666, looked up)
chain: MMKTVDKSKTLTKFEEFFSLQDYKDRVFEAIEKYPNVRSIEVDYLDLEMFDPDLADLLIEKPDDVIRAAQQAIRNIDRLRKNVDLNIRFSGISNVIPLRELRSKFIGKFVAVDGIVRKTDEIRPRIVKAVFECRGCMRHHAVTQSTNMITEPSLCSECGGRSFRLLQDESEFLDTQTLKLQEPLENLSGGEQPRQITVVLEDDLVDTLTGGDIVRVTGTLRTVRDERTKRFKNFIYGNYTEFLEQEFEELQISEEDEEKIKELAGDPNIYEKIIRSTAPSIHGYREVKEAIALQLFGGTGKELDDKTRLRGDIHILIVGDPGIGKSQMLKYVSKLAPRGIYTSGKGTSGVGLTAAAVRDEFGGWSLEAGALVLGDKGNVCVDELDKMREEDRSAIHEALEQQTISIAKAGIMATLNSRCSVLAAANPKFGRFDSYKSIAEQIDLPSTILSRFDLIFVVEDKPDEEKDRELARHILKTHKEDHMPFEIDPELLRKYIAYARKNVRPVLTDEAMQVLEDFYVSMRASAADEDSPVPITARQLEALVRLSEASAKIKLKEHVEAEDARKAIKLSQACLKQVGYDPETGKIDIDKVEGRTPKSERDKFRLLLELIKEYEDDYGGRAPTNILITEMMDRYNVSEEKVEELIRILKDKGAIFEPARGYLKIV
notes: as for B2

Target: the molecule itself
Assay: SEC; 100 micrograms of protein on a superose-6 column (HR10/30); 20 mM Tris-HCl pH 7.5, 150 mM NaCl, 10% glycerol; 22°C, 0.2 ml/min; A280; size markers thyroglobulin, ferritin, albumin, ovalbumin

Binding result, binds:
B1
B2
B3
